Literature values in paper PMC4283463 (Journal of pharmaceutical sciences, 2014).

In the case of human growth hormone [hGH], the “decrease in stability on carbamidomethylation of all four Cys residues” value is listed as ~ 37.7 kJ/mol.
